{
  "source": "paper PMC11439726",
  "key": {"[1]": {"biological_target": "recombinant human FcRn protein (neonatal Fc receptor) (human) (UniProt P55899)"}, "[2]": {"biological_target": "recombinant human FcRn protein (neonatal Fc receptor) (human) (UniProt P55899)", "remark": "listed apart in the source"}},
  "data": [
    {"substance": "CR3022 (human recombinant monoclonal antibody, wildtype IgG1-Fc)", "values": [
      {"measurement": "decrease of basal-to-apical transcytosis of CR3022 (400 µg) across WD-HAE cultures with 10-fold excess IVIG (4 mg) as competitor", "setting": "[1]", "value": 50, "unit": "%"}
    ]},
    {"substance": "CR3022-LS (CR3022 with Fc containing the LS mutation) (antibody)", "values": [
      {"measurement": "reduction of basal-to-apical transcytosis of CR3022-LS across WD-HAE cultures with excess IVIG as competitor", "setting": "[2]", "value": 20, "unit": "%"}
    ]}
  ]
}
